Experiment [1] concerns the target T1, peptide encompassing amino acids 378 to 404 of human PLVAP, expressed by an E. coli clone of the Novatope … (human).
T1 peptide: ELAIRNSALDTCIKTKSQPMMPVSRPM
Nature of the experiment: colony blot of Novatope fragment library. As to the method: PCR was performed using the following thermal cycle: 94° C. for 5 min, followed by 35 cycles of 94° C. for 30 s, 56° C. for 30 s and 72° C. for 60 s. DNA was purified with the Qiaquick PCR purification kit (Qiagen, Surrey, UK) and then used in the construction of a PLVAP Novatope library according to the manufacturer's instructions (Novagen, Merck Biosciences Ltd., Beeston, UK). Briefly, purified PCR product was digested with DNAse I in the presence of Mn²⁺ and fragments between 50-150 base pairs (bp) were gel purified using a gel extraction kit (Qiagen). The DNA fragments were end-filled using T4 DNA polymerase and Tth polymerase to add a single dA residue to each 3′ end and then ligated into the pScreen 1b(+)T-vector (Novagen), which is designed to express small inserts as a carboxy-terminal fusion to the T7 bacterial phage gene 10 capsid protein. The library was transformed into NovaBlue (DE3) cells and plated onto Luria-Bertani (LB) media plates containing carbenicillin (50 μg/ml) and tetracycline (12.5 μg/m). The resulting human PLVAP cDNA library was screened (approximately 10⁴ colonies for each antibody) using the method described in the Novatope manual: Colonies expressing PLVAP fragments were transferred to nitrocellulose filters by contact with the colony for 1 min. Bacterial colonies on the filters were lysed by incubating in a sealed chloroform vapor chamber for 15 min. […]

Experiment [2] concerns the target T2, recombinant human PLVAP51-442 protein (extracellular domain, His tag removed by thrombin) (human, UniProt Q9BX97 51-442).
T2 construct: also called recombinant PLVAP protein; recombinant PLVAP
T2 sequence: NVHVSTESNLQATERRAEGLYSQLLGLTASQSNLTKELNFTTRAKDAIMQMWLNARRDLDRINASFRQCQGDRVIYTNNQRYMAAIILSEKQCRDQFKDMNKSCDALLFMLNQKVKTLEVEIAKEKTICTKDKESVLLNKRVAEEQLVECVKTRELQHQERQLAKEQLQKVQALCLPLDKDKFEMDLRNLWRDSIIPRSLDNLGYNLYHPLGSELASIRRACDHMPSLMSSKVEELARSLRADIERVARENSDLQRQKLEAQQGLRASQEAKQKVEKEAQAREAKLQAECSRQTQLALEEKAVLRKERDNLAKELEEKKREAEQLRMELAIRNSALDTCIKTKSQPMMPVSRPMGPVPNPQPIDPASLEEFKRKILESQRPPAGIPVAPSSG
Nature of the experiment: competition ELISA on coated recombinant PLVAP; competitor biotinylated murine KFCC-GY5 at 0.1 µg/ml. As to the method:
The binding of chimeric KFCC-GY4 and KFCC-GY5 antibodies to recombinant PLVAP protein was assessed in a competition ELISA. Either a dilution series of chimeric or control antibody from 30 μg/ml to 0.014 μg/m (final concentration) was premixed with a constant concentration of biotinylated murine KFCC-GY4 (0.3 μg/ml, final concentration) or a dilution series of chimeric or control antibody from 10 μg/ml to 0.004 μg/m (final concentration) was premixed with a constant concentration of biotinylated murine KFCC-GY5 (0.1 μg/ml, final concentration) before incubating for 1 hour at room temperature on a Nunc Immuno MaxiSorp 96 well flat bottom microtitre plate (Fisher Catalogue No. DIS-971-030J) precoated with 1 μg/ml recombinant PLVAP protein diluted in PBS. The binding of the biotinylated mAb was determined by detection with streptavidin-HRP and TMB substrate.
Therefore, the correct variable region sequences for the parent murine monoclonal antibodies were identified and cloned.

The target of experiment [3] is T2, recombinant human PLVAP51-442 protein …. Kind of experiment: competition ELISA on coated recombinant PLVAP; competitor biotinylated murine KFCC-GY5. As to the method:
The binding of KFCC-GY4 and KFCC-GY5 human antibody variants to recombinant PLVAP was assessed in a competition ELISA. Either a dilution series of variant or control antibody from 30 μg/m to 0.014 μg/m (final concentration) was premixed with a constant concentration of biotinylated murine KFCC-GY4 (0.3 μg/ml, final concentration) or a dilution series of variant or control antibody from 10 μg/m to 0.004 μg/ml (final concentration) was premixed with a constant concentration of biotinylated murine KFCC-GY5 (0.1 μg/ml, final concentration) before incubating for 1 hour at room temperature on a Nunc Immuno MaxiSorp 96 well flat bottom microtitre plate (Fisher Catalogue No. DIS-971-030J) precoated with 1 μg/m recombinant “protein P” diluted in PBS. The binding of the biotinylated mAb was determined by detection with streptavidin-HRP and TMB substrate. After stopping the reaction with 3M HCl, absorbance was measured at 450 nm on a Dynex Technologies MRX TC II plate reader and the binding curves of the test antibodies compared against the mouse reference standard.
Similarly, the four lead variants of IgG4-GY5 and murine KFCC-GY5 antibodies have very similar binding profiles (FIG. 49). All of the lead variants shown are within two-fold of the original murine monoclonal antibody.
(In general: ELISA stands for enzyme-linked immunosorbent assay.)

The target in experiment [4] is T3, His-tagged human CEACAM6 (human, UniProt P40199 35-320, limits assumed).
T3 construct: also called human CEACAM6 protein unrelated to PLVAP (lane 4); not shown: His tag
T3 sequence (looked up): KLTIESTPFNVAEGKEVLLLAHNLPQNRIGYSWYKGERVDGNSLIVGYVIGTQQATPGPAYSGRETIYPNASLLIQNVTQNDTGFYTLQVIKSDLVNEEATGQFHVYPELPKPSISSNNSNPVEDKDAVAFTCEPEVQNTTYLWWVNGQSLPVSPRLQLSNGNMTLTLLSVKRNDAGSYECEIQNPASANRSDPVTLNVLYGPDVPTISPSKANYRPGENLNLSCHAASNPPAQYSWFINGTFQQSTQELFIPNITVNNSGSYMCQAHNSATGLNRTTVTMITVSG
Kind of experiment: immunoblot of total protein extract of E. coli expressing the His-tagged protein. The source says:
(§1) Molecular weight protein standards are resolved in Lane M.
(In western blotting, separated proteins are transferred to a membrane and probed.)

The target of experiment [5] is T4, His-tagged human PLVAP51-292 (human, UniProt Q9BX97 51-292).
T4 construct: also called N-terminal portion of the extracellular domain; not shown: His tag and vector residues of pET-15b
T4 sequence: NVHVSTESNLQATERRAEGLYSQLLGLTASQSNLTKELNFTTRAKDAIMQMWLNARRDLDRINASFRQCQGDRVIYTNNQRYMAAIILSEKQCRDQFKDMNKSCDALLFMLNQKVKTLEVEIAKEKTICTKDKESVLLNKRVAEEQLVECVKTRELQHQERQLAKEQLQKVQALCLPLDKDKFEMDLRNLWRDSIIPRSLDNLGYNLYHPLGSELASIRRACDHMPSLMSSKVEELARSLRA
The experiment is described as above.
Description: as §1

The target of experiment [6] is T2, recombinant human PLVAP51-442 protein …. Kind of experiment: ANTQ300 quartz crystal microbalance.
Experiment [7] shares this target. Nature of the experiment: Biacore T-100. On the technique in general: SPR reads the build-up and loss of mass on a sensor chip optically.

B1: KFCC-GY5 monoclonal antibody (murine, hybridoma ATCC PTA-9964) (antibody, mouse IgG1, V domains shown)
VH: QVQLQQPGAELVRPGASVKLSCKASGYTFTSNYINWVKQRPGQGLEWIGNIYPSDGFTNYNQKFKDRATLTVDKSSSTAYMQLSSPTSEDSAVYYCTRNFDVWGAGTTVTVSS
VL: DVVMTQTPLSLPVSLGDQASISCRSSQSLVHSNGNTYLQWYLQKPGQSPKLLIYTVSNRFSGVPDRFSGSGSGPDFTLKISRVEAEDLGVYFCSQSTHVPFTFGSGTKLEIK
notes: also called GY5 mAB; KFCC-GY5 mAb
On to B1, for which the binding result is reported as “binds” in experiment [1], “no binding” in experiment [4] and “no binding” in experiment [5]. For the same molecule, the IC50 turned out to be 0.49 mg/L in experiment [2] and 0.38 mg/L in experiment [3]. Moreover, in experiment [3], the “IC50 (ratio compared to GY5 mAb)” value stood at 1. Further, the figures for the Kd in experiment [6] and in experiment [7] were 0.041 µM and 0.0598 µM, respectively. The koff in experiment [7] is 0.000414 s⁻¹. Besides, the kon in experiment [7] stood at 6930 M⁻¹ s⁻¹.

Usually IC50 stands for the point on the concentration scale where inhibition reaches its midpoint. A word on the Kd: it is a measure of binding affinity in units of concentration. The term koff denotes a measure of how fast the partners let go of each other. Usually kon stands for the second-order rate constant of association.

The values are drawn from patent US20150017171A1 (CHINA SYNTHETIC RUBBER, published 2015).
